From US20120077964A1 (Merck Sharp & Dohme, published 2012)
Residue numbers refer to the chain shown, from its start. Read-outs that look alike come from different tables or passages of the source. Each block holds one binder with its values, some of them ahead of it.

Columns and labels:
Experiment in all cases: cell-based or functional assay
[1] = biological target: T1, recombinant human PCSK9, V5-, His-tagged (human, UniProt Q8NBP7 31-692, limits assumed)
[2] = biological target: T1, recombinant human PCSK9, V5-, His-tagged; remark: listed apart in the source
[3] = biological target: T1, recombinant human PCSK9, V5-, His-tagged; remark: listed apart in the source
[4] = biological target: T1, recombinant human PCSK9, V5-, His-tagged; remark: listed apart in the source
[5] = biological target: T1, recombinant human PCSK9, V5-, His-tagged; remark: listed apart in the source

T1 sequence (Q8NBP7 31-692 limits assumed): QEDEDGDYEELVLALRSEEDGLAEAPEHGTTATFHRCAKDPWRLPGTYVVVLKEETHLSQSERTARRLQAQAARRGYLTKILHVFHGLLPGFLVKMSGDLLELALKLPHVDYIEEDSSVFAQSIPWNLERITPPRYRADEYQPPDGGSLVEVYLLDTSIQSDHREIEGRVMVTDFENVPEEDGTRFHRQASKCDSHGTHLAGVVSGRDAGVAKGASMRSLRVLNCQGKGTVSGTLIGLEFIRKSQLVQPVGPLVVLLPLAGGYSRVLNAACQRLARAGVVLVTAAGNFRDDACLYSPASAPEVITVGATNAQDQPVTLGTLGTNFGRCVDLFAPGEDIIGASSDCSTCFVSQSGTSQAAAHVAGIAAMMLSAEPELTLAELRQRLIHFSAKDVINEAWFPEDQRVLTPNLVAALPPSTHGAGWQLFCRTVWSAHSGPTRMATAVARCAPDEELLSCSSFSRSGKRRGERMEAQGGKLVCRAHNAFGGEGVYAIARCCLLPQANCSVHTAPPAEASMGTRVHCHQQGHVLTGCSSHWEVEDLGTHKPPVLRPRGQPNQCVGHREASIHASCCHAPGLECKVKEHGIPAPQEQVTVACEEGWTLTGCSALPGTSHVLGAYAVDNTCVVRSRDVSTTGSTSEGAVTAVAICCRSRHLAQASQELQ

B2: 3CX4B08 Fab (Fab, V domains shown)
VH: QVQLVESGGGLVQPGGSLRLSCAASGFTFSNYTMNWVRQAPGKGLEWVSFISSSSSETYYADSVKGRFTISRDNSKNTLYLQMNSLRAEDTAVYYCARGYGDMVDLWGQGTLVTVSS
VL: DIELTQPPSVSVAPGQTARISCSGDSIPTYYVAWYQQKPGQAPVLVIYSDTDRPSGIPERFSGSNSGNTATLTISGTQAEDEADYYCQSFDNHGYHVFGGGTKLTVLG
IC50: Fab titrated against PCSK9 fixed at 25 µg/ml, recovery of cellular diI-LDL uptake (Exopolar assay) [2]: 127 nM

B3: 3CX2A06 Fab (Fab, V domains shown)
VH: QVQLVQSGAEVKKPGESLKISCKGSGYSFSNFWIAWVRQMPGKGLEWMGIIDPSDSWTRYSPSFQGQVTISADKSISTAYLQWSSLKASDTAMYYCARGDGQDFDNWGQGTLVTVSS
VL: DIQMTQSPSSLSASVGDRVTITCRASQNINSYLNWYQQKPGKAPKLLIYAASSLQSGVPSRFSGSGSGTDFTLTISSLQPEDFAVYYCLQNYDLPNTFGQGTKVEIKR
IC50: Fab titrated against PCSK9 fixed at 25 µg/ml, recovery of cellular diI-LDL uptake (Exopolar assay) [3]: 107 nM

B4: 3CX3D02 Fab (Fab, V domains shown)
VH: QVQLVQSGAEVKKPGESLKISCKGSGYSFTNSWIGWVRQMPGKGLEWMGIIYPSDSYTIYSPSFQGQVTISADKSISTAYLQWSSLKASDTAMYYCARGGGYYYALMDVWAQGTLVTVSS
VL: B3 VL with N28T, N30S, S31T, Y32W, V85T, N91D, Y92S, D93S, N96L
IC50: Fab titrated against PCSK9 fixed at 25 µg/ml, recovery of cellular diI-LDL uptake (Exopolar assay) [4]: 269 nM

The remaining lines, values ahead:

IC50: Fab titrated against PCSK9 fixed at 25 µg/ml, recovery of cellular diI-LDL uptake (Exopolar assay) [1]: 1.25 µM
B1: 3BX5C01 Fab (Fab, V domains shown)
VH: QVQLVQSGAEVKKPGESLKISCKGSGYSFTSYGISWVRQMPGKGLEWMGMIDPSDSFTTYSPSFQGQVTISADKSISTAYLQWSSLKASDTAMYYCARGYYFTYALQPMDHWGQGTLVTVSS
VL: DIELTQPPSVSVAPGQTARISCSGDNLRDYIVHWYQQKPGQAPVLVIYDDSNRPSGIPERFSGSNSGNTATLTISGTQAEDEADYYCGFDNGGDIDVFGGGTKLTVLG

IC50: Fab titrated against PCSK9 fixed at 25 µg/ml, recovery of cellular diI-LDL uptake (Exopolar assay) [5]: 267 nM
B5: 1CX1G08 Fab (Fab, V domains shown)
VH: QVQLVESGGGLVQPGGSLRLSCAASGFTFSDYWVSWVRQAPGKGLEWVSFISYDGSSTYYADSVKGRFTISRDNSKNTLYLQMNSLRAEDTAVYYCARTYFEGVDVWGQGTLVTVSS
VL: DIELTQPPSVSVAPGQTARISCSGDNIGTYYVHWYQQKPGQAPVLVIYDDSNRPSGIPERFSGSNSGNTATLTISGTQAEDEADYYCGTWDNTSFNLVFGGGTKLTVLG
